Assay results as given in US8536118B2, “Methods and compositions for modulating hyperstabilized c-met” (Genentech, Inc., priority 2005, dated 2013).

Experiments:
[1] = molecular target: Met receptor (Homo sapiens, UniProt P08581, DEL964-1010); experiment: Met receptor inhibition in serum-starved, rhuHGF-stimulated cells, immunoblot with infrared quantification; type: cell-based; details: H596 cells (Met exon 14 deletion), antibody 30 minutes, then 100 ng/ml rhuHGF; FIGS. 4A, 6
Protocol: (§1) To examine the prolonged signaling in H226, H596, H358, or Rat 1A-Met stable clones, the cells were rinsed with PBS then serum-starved in RPMI or DMEM media containing 0.5% BSA, 2 mM glutamine, and penicillin/streptomycin for one hour. rhuHGF or the agonistic anti-Met monoclonal antibody, 3D6 (Genentech), was added to the serum-free media for 10 minutes. The monolayer of cells was then rinsed with PBS and incubated with serum-free media until their extraction at the indicated times. Cells were then rinsed once with PBS, lysed with 1×SDS sample buffer containing 1×DTT (Invitrogen), sonicated briefly, and boiled for 5 minutes. […] Boiled samples were analyzed by SDS-PAGE and immunoblotted with P-Met (Y1230/Y1234/Y1235, BioSource), P-Met (Y1234/Y1235), Met (DL-21), P-MAPK (E10, Cell Signaling), P-MAPK (Cell Signaling), P-Akt (587F11, Cell Signaling), or Akt (Cell Signaling). […] Proteins transferred onto nitrocellulose membranes were detected by infrared scan using Odyssey (LiCor) according to the manufacturer's recommended western blotting instructions followed by quantification. […] After 72 hrs, cell viability was measured using the Celltiter-Glo Luminescent Cell Viability Assay (Promega). Stimulation indices were determined by dividing the average cell viability units of HGF-stimulated cultures by the average cell viability units of unstimulated cultures. […]

[2] = test system: H596 cells; experiment: Growth inhibition assay (Celltiter-Glo cell viability, 72 hrs, HGF stimulation); type: cell-based, human; details: with or without 50 ng/ml rhuHGF, FIG. 4B
Protocol: as §1

B1: OA-5D5: known anti-c-met inhibitor; antibody of intact light chain, heavy chain and N-terminally truncated heavy chain comprising an Fc portion (antibody, V domains shown)
VH: EVQLVESGGGLVQPGGSLRLSCAASGYTFTSYWLHWVRQAPGKGLEWVGMIDPSNSDTRFNPNFKDRFTISADTSKNTAYLQMNSLRAEDTAVYYCATYRSYVTPLDYWGQGTLVTVSS
VL: DIQMTQSPSSLSASVGDRVTITCKSSQSLLYTSSQKNYLAWYQQKPGKAPKLLIYWASTRESGVPSRFSGSGSGTDFTLTISSLQPEDFATYYCQQYYAYPWTFGQGTKVEIK
modifications: constant regions; truncated heavy chain Fc; Sequence is synthesized
notes: antibody of intact light chain, heavy chain and N-terminally truncated heavy chain comprising an Fc portion
For B1, the MAPK phosphorylation [1] was “decreased with the addition of anti-Met OA-5D5 in a dose-dependent manner”, the Met phosphorylation [1] was “decreased with the addition of anti-Met OA-5D5 in a dose-dependent manner” and the “cell proliferation (cell viability)” value [2] was “dose-dependent inhibition of cell proliferation in a ligand-dependent manner”.
